Test results: US20090035321A1, “Intercellular adhesion molecules and their binding ligands” (Boehringer Ingelheim Pharmaceuticals, Inc., published 2009)

Experiments:
[1] = target: Lymphocyte Function-associated Antigen-1 (LFA-1), on cells (human) (UniProt P20701)
[2] = target: Lymphocyte Function-associated Antigen-1 (LFA-1), on cells (human) (UniProt P20701); remark: listed apart in the source
[3] = target: ICAM-1 A115N/SV (printed A155N/SV at paragraph 410) (human) (UniProt P05362); experiment: 35S-HRV14 on COS cells
[4] = target: ICAM-1 N269QSQI/IQAEQ (human) (UniProt P05362); experiment: 35S-HRV14 on COS cells
[5] = target: ICAM-1 S5/T (human) (UniProt P05362); experiment: 35S-HRV14 on COS cells
[6] = target: Intercellular Adhesion Molecule-1 (ICAM-1), wild type, on the cell surface (human) (UniProt P05362)
[7] = target: ICAM-1 Y476/TAG (human) (UniProt P05362)
[8] = target: Intercellular Adhesion Molecule-1 (ICAM-1), wild type, on the cell surface (human) (UniProt P05362); remark: listed apart in the source
[9] = target: purified ICAM-1 (human) (UniProt P05362)

**Q.** How did the % inhibition of the mixed lymphocyte reaction [1] turn out when anti-LFA-1 antibody R3.1 was run?
**A.** 93 % inhibition

**Q.** anti-LFA-1 monoclonal antibody TS1/18 was tested. Which binding of JY cells to ICAM-1 in plastic-bound vesicles [2] did it give?
**A.** 96 % inhibition

**Q.** Which results are given for “human rhinovirus 14 (HRV14) (from UniProt P03303)”?
**A.** HRV Binding % (% of wild type) [3]: 12; HRV Binding % (% of wild type) [4]: 108; HRV Binding % (% of wild type) [5]: 125

**Q.** Which results are given for monoclonal antibody RR1/1?
**A.** % inhibition of PMA-stimulated PHA-lymphoblast aggregation [6]: 51 % inhibition; % of cells expressing ICAM-1 that bind LFA-1 in the presence of RR1/1 [7]: 0%; % of cells expressing ICAM-1 that bind LFA-1 in the presence of RR1/1 [8]: 0%; binding of JY cells to ICAM-1 in plastic-bound vesicles [9]: 97 % inhibition
